Here are results for one molecule from paper PMC8385704 (Signal Transduction and Targeted Therapy, 2021).

The target of assay [1] is T1, His-tagged recombinant human ACE2 protein (residues 19-740), dimeric (Homo sapiens, UniProt Q9BYF1).
T1 construct: also called hACE2-his; His-tagged human ACE2
Put plainly: BLI. To be noted: both partners purified.

The target in assay [2] is T1, His-tagged recombinant human ACE2 …. The assay is described as follows: ELISA; 3E8 and His-tagged recombinant human ACE2 protein; who was coated is not told. Conditions: both partners purified.

T1 sequence (Q9BYF1 19-740): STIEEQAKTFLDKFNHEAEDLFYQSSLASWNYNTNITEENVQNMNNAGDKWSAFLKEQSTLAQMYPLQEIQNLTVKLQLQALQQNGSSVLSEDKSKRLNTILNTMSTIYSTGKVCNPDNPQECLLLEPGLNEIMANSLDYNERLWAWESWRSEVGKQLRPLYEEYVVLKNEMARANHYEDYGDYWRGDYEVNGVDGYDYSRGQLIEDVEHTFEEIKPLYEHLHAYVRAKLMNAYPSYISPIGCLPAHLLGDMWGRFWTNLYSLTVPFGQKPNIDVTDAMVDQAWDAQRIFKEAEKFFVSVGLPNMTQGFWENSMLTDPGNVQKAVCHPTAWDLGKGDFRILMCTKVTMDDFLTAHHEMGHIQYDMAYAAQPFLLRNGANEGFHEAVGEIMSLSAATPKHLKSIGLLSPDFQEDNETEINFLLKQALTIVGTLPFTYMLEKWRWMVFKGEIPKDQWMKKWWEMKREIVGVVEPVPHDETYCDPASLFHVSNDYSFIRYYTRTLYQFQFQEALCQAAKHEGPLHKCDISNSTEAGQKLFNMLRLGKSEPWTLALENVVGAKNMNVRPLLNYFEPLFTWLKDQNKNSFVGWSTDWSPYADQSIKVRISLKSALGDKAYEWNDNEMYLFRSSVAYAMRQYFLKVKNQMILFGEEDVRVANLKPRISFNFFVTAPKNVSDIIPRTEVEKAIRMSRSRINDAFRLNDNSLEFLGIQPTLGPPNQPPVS

B1: monoclonal antibody 3E8 (antibody, V domains shown)
VH: EVQLEESGAELVRPGASVKISCKAFGYTFTNHHINWMKQRPGQGLDWIGYVNPYNDYTKYSQNFKGKATLSVDRSSSTAYMELSSLTSEDSAVYYCARWRDYDRDWYFDVWGAGTTVIVSS
VL: DIVMTQSPATLSVTPGDRVSLSCRASQSIRDYLYWYQQKSHESPRLLIKYASQSISGIPSRFSGSGSGSDFTLSINSVEPEDVGVYYCQNGHSFPYTFGGGTKLEIK
In the case of B1, the Kd in assay [1] is 30.5 nM. Besides, the EC50 in assay [2] turned out to be 15.3 nM.
